Source: patent US20150225459A1 (ARCH CANCER THERAPEUTICS, published 2015)
Ends that are not written are not given here.

B1: TNITESQQLNWR (SEQ ID NO: 7) (peptide)
peptide: TNITESQQLNWR
notes: also called putative target of LSALT
B2: MNVTPRQ (SEQ ID NO: 11) (peptide)
peptide: MNVTPRQ
notes: as for B1
B3: PTLPWKK (SEQ ID NO: 10) (peptide)
peptide: PTLPWKK
notes: as for B1
B4: LNTQTGK (SEQ ID NO: 15) (peptide)
peptide: LNTQTGK
notes: as for B1
B5: DNTRVDT (SEQ ID NO: 9) (peptide)
peptide: DNTRVDT
notes: as for B1
B6: EQFTNLLDMTYA (SEQ ID NO: 5) (peptide)
peptide: EQFTNLLDMTYA
notes: as for B1
B7: NERNSWH (SEQ ID NO: 16) (peptide)
peptide: NERNSWH
notes: as for B1
B8: FEQKKGT (SEQ ID NO: 8) (peptide)
peptide: FEQKKGT
notes: as for B1
B9: LGPAHLY (SEQ ID NO: 13) (peptide)
peptide: LGPAHLY
notes: as for B1
B10: GLHNKTH (SEQ ID NO: 14) (peptide)
peptide: GLHNKTH
notes: as for B1
B11: IPPSYSATLPALR (SEQ ID NO: 4) (peptide)
peptide: IPPSYSATLPALR
notes: as for B1
B12: HLPSIIPTMPYR (SEQ ID NO: 2) (peptide)
peptide: HLPSIIPTMPYR
notes: as for B1
B13: HATGTHGLSLSH (SEQ ID NO: 6) (peptide)
peptide: HATGTHGLSLSH
notes: as for B1
B14: EQFTNLLDMYTA (SEQ ID NO: 3) (peptide)
peptide: EQFTNLLDMYTA
notes: as for B1
B15: TTEHPRK (SEQ ID NO: 12) (peptide)
peptide: TTEHPRK
notes: as for B1

Molecular target: T1, LSALT phage (T7 phage displaying the LSALT peptide LSALTPSPSWLKYKAL) (also: displayed on T7 phage, fused to the coat protein)
T1 construct: The peptide is not naturally occurring; it is the out-of-frame product of Ube2n; also called Ube2n (LSALT) phage; LSALT-bacteriophage
T1 peptide: LSALTPSPSWLKYKAL
Assay: biopanning of a combinatorial M13 phage library against LSALT phage immobilized on nitrocellulose
From the text: When the LSALT phage was immobilized on nitrocellulose and biopanned against with a combinatorial M13 phage library, the following peptides were isolated as peptides that bind specifically with the LSALT. These peptides provide potential targets for action of LSALT peptides, variants and modifications thereof.

Binding result, binds:
B1
B2
B3
B4
B5
B6
B7
B8
B9
B10
B11
B12
B13
B14
B15
